The numbers were not newly measured in publication PMC4105053, which cites them from elsewhere.

The target in data set [1] is MMOB (Methylococcus capsulatus) (UniProt P18797).
The target of data set [2] is MMOR Fd (Methylococcus capsulatus) (UniProt P22868).
MMOR Fd (Methylococcus capsulatus), sequence (P22868 1-98): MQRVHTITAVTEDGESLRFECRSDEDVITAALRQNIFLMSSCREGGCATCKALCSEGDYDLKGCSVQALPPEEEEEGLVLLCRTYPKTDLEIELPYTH

MMOH, sequence (P22869 whole entry): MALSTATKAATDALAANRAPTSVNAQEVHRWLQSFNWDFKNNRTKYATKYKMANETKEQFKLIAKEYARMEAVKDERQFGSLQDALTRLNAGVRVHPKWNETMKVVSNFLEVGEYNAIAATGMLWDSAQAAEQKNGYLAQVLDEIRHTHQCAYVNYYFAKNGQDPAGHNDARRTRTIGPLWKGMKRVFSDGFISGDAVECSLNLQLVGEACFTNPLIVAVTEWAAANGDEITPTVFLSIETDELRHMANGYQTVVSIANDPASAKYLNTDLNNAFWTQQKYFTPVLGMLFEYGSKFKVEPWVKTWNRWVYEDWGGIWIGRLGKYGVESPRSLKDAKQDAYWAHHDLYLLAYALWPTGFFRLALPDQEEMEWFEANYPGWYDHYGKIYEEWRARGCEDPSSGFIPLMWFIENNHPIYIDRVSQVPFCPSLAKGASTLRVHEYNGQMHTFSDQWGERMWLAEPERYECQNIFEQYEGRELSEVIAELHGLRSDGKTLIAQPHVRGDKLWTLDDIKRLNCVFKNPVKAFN
MMOH, sequence (P18798 2-389, further chain): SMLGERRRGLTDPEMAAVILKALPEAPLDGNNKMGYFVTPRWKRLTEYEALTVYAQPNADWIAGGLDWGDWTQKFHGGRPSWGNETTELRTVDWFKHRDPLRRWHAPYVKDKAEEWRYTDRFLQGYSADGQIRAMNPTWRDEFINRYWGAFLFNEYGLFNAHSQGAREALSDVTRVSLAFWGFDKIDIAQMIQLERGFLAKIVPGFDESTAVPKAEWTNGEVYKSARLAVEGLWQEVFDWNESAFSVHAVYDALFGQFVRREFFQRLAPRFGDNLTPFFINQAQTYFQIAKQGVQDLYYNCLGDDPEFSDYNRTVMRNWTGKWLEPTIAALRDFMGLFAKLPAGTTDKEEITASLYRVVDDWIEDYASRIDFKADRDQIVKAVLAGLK
MMOH, sequence (P11987 2-170, further chain): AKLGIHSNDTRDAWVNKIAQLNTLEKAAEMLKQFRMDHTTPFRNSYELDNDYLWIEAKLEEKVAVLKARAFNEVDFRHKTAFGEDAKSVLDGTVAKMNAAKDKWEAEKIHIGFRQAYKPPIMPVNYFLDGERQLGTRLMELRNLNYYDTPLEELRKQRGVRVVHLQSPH
MMOB (Methylococcus capsulatus), sequence (P18797 whole entry): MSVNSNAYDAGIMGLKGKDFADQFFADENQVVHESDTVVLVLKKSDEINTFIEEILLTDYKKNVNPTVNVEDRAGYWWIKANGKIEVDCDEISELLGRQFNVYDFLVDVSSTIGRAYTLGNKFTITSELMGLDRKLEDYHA

As for MMOH (from UniProt P22869), the Kd (commonly a measure of binding affinity in units of concentration) in data set [1] was 550 nM; in data set [2] it was 900 nM.
